Source: patent US20120142040

Tested on: H3K4me2-biotin peptide (1ARTKme2QTARKSTGGKAPRKQLYKbiotin)
Sequence (chain, as listed by the source): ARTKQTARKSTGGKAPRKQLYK

With GST-LSD1 (prepared in-house) the “shift of the mass spectra after the demethylase assay (MassSQUIRM, MALDI mass spectrometry)” value was “Upon addition of LSD1, we observed a shift of spectra to greater mass, indicating a mixed population of methylation states”.
